Experimental data published in patent US20060233785A1, “Immunointeractive molecules and uses thereof” (priority 2001, published 2006).
Residue numbers refer to the chain shown, from its start.

Tests used:
[1] = test system: rHev b 6-specific serum IgE; assay: Immunoblotting detecting rHev b 6-specific serum IgE (Example 3); assay type: binding, human; conditions: sera from patients 1, 4 and 5; prohevein band around 20 kDa
Protocol: FIG. 4 is an image of immunoblotting detecting rHev b 6-specific serum IgE. rHev b 6 was subjected to electrophoresis under reducing conditions on a 16% SDS PAGE minigel and transferred to a nitrocellulose membrane. After blocking with skim milk powder, the membrane was incubated with serum from latex allergic and non-allergic subjects (1:5 dilution). Antibody binding was detected by incubation with rabbit anti-human IgE, swine anti-rabbit immunoglobulins-HRP and 4-chloro-1-naphthol as substrate. M: molecular mass markers; C: Coomassie-stained gel; lane 1: 1A5.4.3 monoclonal antibody; lane 2: P1 serum; lane 3: P4 serum; lane 4: P5 serum; lane 5: non-latex-allergic serum; lane 6: no serum.
Hybridoma supernatants and patient sera were tested for reactivity with LAL, NAL, glove extract, rHev b 6 and hevein by 16% SDS-PAGE and immunoblotting as described previously (Sutherland et al., 2002, supra).

IgE binding to rHev b 6 = assay: Inhibition ELISA: IgE binding to rHev b 6; design: species or system human; conditions: for inhibitor concentration required to give 30% inhibition of IgE binding: estimated; for maximum inhibition of IgE binding to rHev b 6: third subject (FIG. 8D), 125 μg/ml inhibitor
Protocol: Inhibition ELISA were carried out to confirm the lack of IgE reactivity of mutant rHev b 6. Various concentrations of mutant rHev b 6 and rHev b 6, ranging from 0.0016 μg/ml to 125 μg/ml were preincubated with patient sera before the sera were used in ELISA to measure IgE binding to rHev b 6. Incubation of sera with KLH was used as a negative control. Values are presented as percent inhibition±standard deviation. (A) The Hev b 6-specific mAb 1A5.4 was incubated with KLH, mutant rHev b 6 and rHev b 6 and mAb binding to rHev b 6 detected. Sera from three latex-allergic, Hev b 6 sensitised subjects A7 (B), A6 (C) and A8 (D) were incubated with KLH, mutant rHev b 6 and rHev b 6 and IgE binding to rHev b 6 detected. The horizontal line indicates the level below which inhibition was considered to non-specific.
To confirm the lack of IgE reactivity of mutant rHev b 6, inhibition ELISA were performed. In these assays, IgE binding to rHev b 6 was inhibited by preincubation of sera from latex allergic, Hev b 6 reactive subjects with either rHev b 6 or mutant rHev b 6 over a range of concentrations. To determine the level of non-specific inhibition inherent in such an assay, an initial non-specific inhibition assay was performed. The serum of a latex-allergic, Hev b 5 positive subject was incubated with rHev b 6 and mutant rHev b 6 and then the ability of IgE from this serum to bind rHev b 5 in an ELISA was measured. When this assay was undertaken, binding of IgE to rHev b5 was inhibited at a maximum of 20% by rHev b 6 and mutant rHev b 6 (data not shown).

latex-specific serum IgE = assay: ELISA detecting latex-specific serum IgE (Example 3); assay type: binding, human; conditions: ten latex-allergic patients; serum 1:10
Protocol: FIG. 3 is a graphical representation of an ELISA detecting latex-specific serum IgE. ELISA plates were coated with 10 μg/ml rHev b 6 and glove extract, blocked with skim milk powder and incubated with patient (P1-10) and non-allergic control serum (NA1-6) diluted 1:10. Antibody binding was detected by incubation with rabbit anti-human IgE, swine anti-rabbit immunoglobulines-HRP and o-phenylenediamine as substrate. Mean values+SD for triplicate wells are shown. The cut-off for positive was 2 SD above the mean OD of non-allergic subjects for rHev b 6 (dotted line) and glove extract (black line).
Hybridoma supernatants were tested for reactivity to rHev b 6, glove extract and Hev b 6 peptides by ELISA using an established protocol (Sutherland et al., 2002, supra). Patient serum samples were tested for latex-specific IgE using a similar ELISA protocol with rabbit anti-human IgE (1/1000) and swine anti-rabbit immunoglobulins-horseradish peroxidase conjugate (1/1000). Monoclonal antibody isotypes were determined using a mouse immunoglobulin isotyping ELISA kit (BD Biosciences, San Diego, Calif., USA).

[2] = assay type: physicochemical
Source text: Recombinant Hev b 6 (rHev b 6): The cDNA encoding Hev b 6 was cloned from latex RNA (Beezhold, unpublished). The deduced amino acid sequence of this clone is identical to that of the Hev b 6 clone pDHPROH 6 in Rozynek P et al., 1998, Clinical and Experimental Allergy 28:1418-1426 and differed at amino acid 126 (Thr versus Ala) from the deduced amino acid sequence of the Hev b 6 clone pDHPROH 1-2 (Genbank entry AJ003196.1). It differs at amino acids 109 (Pro versus Ser) and 161 (Leu versus Ile) from the deduced amino acid sequence of the Hev b 6 clone HEV1 (Genbank entry M36986.1), isolated by Broekaert W, Lee H, Kush A, Chua N-H, Raikhel N. Wound-induced accumulation of mRNA containing a hevein sequence in laticifers of rubber tree (Hevea brasiliensis). Proc Natl Acad Sci USA 1990; 87:7633-7637. The Hev b 6 cDNA was subcloned into the pPROEX-Hta vector (Invitrogen, CA, USA) by the polymerase chain reaction (PCR) following our standardised methods (Sutherland et al., 2002, supra). Primers HEVB6F (5′-[…]-3′) (SEQ ID NO:22) and HEVB6R (5′-[…]-3′) (SEQ ID NO:23) were used for the PCR. The plasmid construct was transformed into E. coli strain BL21-CodonPlus® (DE3)-RIL competent cells (Stratagene, CA, USA) by the heat shock procedure (Sambruk et al., 1989, supra). […]

B1: rHev b 6: recombinant Hev b 6 (prohevein) expressed in E. coli from pPROEX-HTa with 6-His tag (protein)
chain: EQCGRQAGGKLCPNNLCCSQWGWCGSTDEYCSPDHNCQSNCKDSGEGVGGGSASNVLATYHLYNSQDHGWDLNAASAYCSTWDANKPYSWRSKYGWTAFCGPVGAHGQSSCGKCLSVTNTGTGAKTTVRIVDQCSNGGLDLDVNVFRQLDTDGKGYERGHITVNYQFVDCGDSFNPLFSVMKSSVIN
modifications: left off: small tags and cut ends
notes: recombinant Hev b 6 (prohevein) expressed in E. coli from pPROEX-HTa with 6-His tag
- serum IgE reactivity by Western blotting [1]: all showed reactivity
- inhibitor concentration required to give 30% inhibition of IgE binding (IgE binding to rHev b 6): 0.01 µg/mL
- inhibition of IgE binding to rHev b 6 (IgE binding to rHev b 6; higher inhibitor concentrations, FIGS. 8B, C and D): 100%
- maximum inhibition of IgE binding to rHev b 6 (IgE binding to rHev b 6): 100%
- number of latex-allergic patients with serum IgE binding by ELISA (latex-specific serum IgE): eight
- solubility [2]: insoluble

B2: sulphonated rHev b 6: purified rHev b 6 sulphonated in sulphonation buffer to improve solubility (protein)
chain: B1 chain
modifications: left off: small tags and cut ends
- solubility [2]: increased markedly

B3: mutant rHev b 6: rHev b 6 with cysteine to alanine substitution at amino acid 3 of the mature protein (protein)
chain: B1 chain with C3A
modifications: left off: small tags and cut ends
notes: rHev b 6 with cysteine to alanine substitution at amino acid 3 of the mature protein
- fold more inhibitor required to inhibit IgE binding as effectively as rHev b 6 (IgE binding to rHev b 6; at 30% inhibition): 12,500 fold
- inhibitor concentration required to give 30% inhibition of IgE binding (IgE binding to rHev b 6): 125 µg/mL
- maximum inhibition of IgE binding to rHev b 6 (IgE binding to rHev b 6): 32%
- inhibition of IgE binding to rHev b 6 (IgE binding to rHev b 6; two subjects (FIGS. 8B and C), 0.0016 to 125 μg/ml): failed to inhibit above the level determined for non-specific inhibition
